# From patent US6916645B2, “Amylases” (Kao Corporation, priority 1998, dated 2005)
# Columns and labels:
# [1] = Specific activity: amylase activity measuring method and protein assay kit; type: biochemical; details: pH 10 glycine sodium hydroxide buffer, 50° C., 15 minutes, soluble starch as substrate
# Description: In a test tube, 0.5 mL of the 1% aqueous solution of soluble starch, 0.2 mL of the 250 mM glycine sodium hydroxide buffer (pH 10) and 0.2 mL of deionized water (said mixture will hereinafter be called “substrate solution”) were charged, followed by preliminary heating for about 5 minutes in a water bath of 50° C. After preliminary heating, 0.1 ml of a properly diluted enzyme solution was added to the reaction mixture, followed by reaction at 50° C. for 15 minutes. After completion of the reaction, 1.0 mL of the DNS reagent was added to the reaction mixture, followed by color development by heating in boiling water for 5 minutes. Immediately after that, the solution was allowed to cool down in an ice-water bath. The resulting solution, after cooling, was added with 4.0 mL of deionized water, followed by mixing. The absorbance of the solution at 535 nm was then measured.
# In a test tube, 0.9 mL of the substrate solution was charged, followed by the addition of 1.0 mL of the DNS reagent and then with 0.1 mL of an enzyme solution. The resulting mixture was heated in a boiling water for 5 minutes to cause color development. […] The absorbance of the solution at 535 nm was then measured.
# In a test tube, 0.9 mL of the substrate solution was charged, followed by the addition of 1.0 mL of the DNS reagent and then with 0.1 mL of each of the glucose solutions for a calibration curve having various concentrations. […] The absorbance of the solution at 535 nm was then measured. On a graph, the glucose concentration (μmol/0.1 mL) was plotted as abscissa and the absorbance as ordinate and the slope of those linear plots was determined by the least square method. A conversion factor (F) was calculated in accordance with the following formula: Conversion Factor (F)=[1/(slope)]×[1/15]×[1000/0.1]
# With the amount of the enzyme which formed reducing sugar equivalent to 1 μmol of glucose in one minute was defined as one unit (1U), the titer of the enzyme was calculated in accordance with the following formula: Activity of amylase (U/L)=[δ-absorbance]×[conversion factor (F)]×[dilution ratio] […]
# [2] = EDTA or EGTA resisting performance (residual enzyme activity); type: physicochemical; details: 0 to 100 mM EDTA or EGTA, pH 10, 30, 40 or 45° C., 30 minutes; FIGS. 1 and 2
# Description: (§1) After 9.3 g of EDTA (product of Sigma Chemical Co., Ltd.) was dissolved in about 80 mL of deionized water, the resulting solution was adjusted to pH 8 with an about SN aqueous sodium hydroxide solution by using a pH meter. To the pH-adjusted solution, deionized water was added to give a total volume of 100 mL, whereby a 250 mM EDTA solution was prepared. The resulting solution was diluted with deionized water to prepare 10 to 100 mM EDTA solutions.
# as §1, with “9.5” for “9.3”, “EGTA” for “EDTA”, “5N” for “SN”
# In a test tube, 0.1 mL of the 10 mM EDTA solution, 0.2 mL of the 250 mM glycine sodium hydroxide buffer (pH 10) and 0.1 mL of deionized water were charged, followed by preliminary heating in a water bath of 45° C. for about 5 minutes. […] Thirty minutes later, a 0.1 mL portion of the resulting solution was added to 0.9 mL of the substrate solution preliminary heated in a water bath of 50° C. and the residual enzyme activity was measured in accordance with the amylase activity measuring method. […]
# [3] = Resisting performance against citric acid or zeolite (residual enzyme activity); type: physicochemical; details: 0 to 0.5% trisodium citrate or synthetic zeolite A-3, pH 10, 40 or 45° C., 30 minutes; FIGS. 3 to 6
# Description: To a 50 mM glycine sodium hydroxide buffer (pH 10) containing trisodium citrate dihydrate (guaranteed class product of Wako Pure Chemical Industries, Ltd.) or synthetic zeolite A-3 (product of Wako Pure Chemical Industries, Ltd.) having each of final concentrations of 0 to 0.5%, a purified enzyme properly diluted with a 10 mM glycine sodium hydroxide buffer (pH 10) was added, followed by treatment at each of predetermined temperatures (40° C. and 45° C.) for 30 minutes. The residual enzyme activity of the reaction mixture was measured in accordance with the amylase activity measuring method [with a 50 mM glycine sodium hydroxide buffer (pH 10)].
# [4] = Effects of metal salts (inhibition ratio); type: biochemical; details: pH 10, 30° C., 30 minutes; for inhibition ratio by Mn2+: 1 mM Mn2+
# Description: Each of them was treated at pH 10 and 30° C. for 30 minutes in the presence of various metal salts, whereby their effects were studied.
Molecule,Specific activity [1],resisting performance against EDTA or EGTA (residual activity) [2],resisting performance against citric acid or zeolite (residual activity) [3],inhibition ratio by Cd2+ (K38 sentence) ([4]; 1 mM Cd2+),inhibition ratio by Mn2+ [4],inhibition ratio by Sr2+ ([4]; 1 mM Sr2+)
"K38: purified liquefying alkaline amylase obtained from strain Bacillus sp. KSM-K38 (FERM BP-6946); SEQ ID NO:4 (protein, listed as Bacillus sp.) MRRWVVAMLAVLFLFPSVVVADGLNGTMMQYYEWHLENDGQHWNRLHDDAAALSDAGITAIWIPPAYKGNSQADVGYGAYDLYDLGEFNQKGTVRTKYGTKAQLERAIGSLKSNDINVYGDVVMNHKMGADFTEAVQAVQVNPTNRWQDISGAYTIDAWTGFDFSGRNNAYSDFKWRWFHFNGVDWDQRYQENHIFRFANTNWNWRVDEENGNYDYLLGSNIDFSHPEVQDELKDWGSWFTDELDLDGYRLDAIKHIPFWYTSDWVRHQRNEADQDLFVVGEYWKDDVGALEFYLDEMNWEMSLFDVPLNYNFYRASQQGGSYDMRNILRGSLVEAHPMHAVTFVDNHDTQPGESLESWVADWFKPLAYATILTREGGYPNVFYGDYYGIPNDNISAKKDMIDELLDARQNYAYGTQHDYFDHWDVVGWTREGSSSRPNSGLATIMSNGPGGSKWMYVGRQNAGQTWTDLTGNNGASVTINGDGWGEFFTNGGSVSVYVNQ",3600 U/mg,not influenced by highly concentrated EDTA or EGTA,influenced by neither citric acid nor zeolite,about 30%,about 75%,about 30%
"Duramyl: amylase derived from Bacillus licheniformis, purified from a Novo product in granular form (protein, UniProt P06278 30-512, looked up) Alpha-amylase: ANLNGTLMQYFEWYMPNDGQHWKRLQNDSAYLAEHGITAVWIPPAYKGTSQADVGYGAYDLYDLGEFHQKGTVRTKYGTKGELQSAIKSLHSRDINVYGDVVINHKGGADATEDVTAVEVDPADRNRVISGEHRIKAWTHFHFPGRGSTYSDFKWHWYHFDGTDWDESRKLNRIYKFQGKAWDWEVSNENGNYDYLMYADIDYDHPDVAAEIKRWGTWYANELQLDGFRLDAVKHIKFSFLRDWVNHVREKTGKEMFTVAEYWQNDLGALENYLNKTNFNHSVFDVPLHYQFHAASTQGGGYDMRKLLNSTVVSKHPLKAVTFVDNHDTQPGQSLESTVQTWFKPLAYAFILTRESGYPQVFYGDMYGTKGDSQREIPALKHKIEPILKARKQYAYGAQHDYFDHHDIVGWTREGDSSVANSGLAALITDGPGGAKRMYVGRQNAGETWHDITGNRSEPVVINSEGWGEFHVNGGSVSIYVQR",500 U/mg,,,,,
"K36: purified liquefying alkaline amylase obtained from strain Bacillus sp. KSM-K36 (FERM BP-6945); SEQ ID NO:2 (protein, listed as Bacillus sp.) MKRWVVAMLAVLFLFPSVVVADGLNGTMMQYYEWHLENDGQHWNRLHDDAEALSNAGITAIWIPPAYKGNSQADVGYGAYDLYDLGEFNQKGTVRTKYGTKAQLERAIGSLKSNDINVYGDVVMNHKLGADFTEAVQAVQVNPSNRWQDISGVYTIDAWTGFDFPGRNNAYSDFKWRWFHFNGVDWDQRYQENHLFRFANTNWNWRVDEENGNYDYLLGSNIDFSHPEVQEELKDWGSWFTDELDLDGYRLDAIKHIPFWYTSDWVRHQRSEADQDLFVVGEYWKDDVGALEFYLDEMNWEMSLFDVPLNYNFYRASKQGGSYDMRNILRGSLVEAHPIHAVTFVDNHDTQPGESLESWVADWFKPLAYATILTREGGYPNVFYGDYYGIPNDNISAKKDMIDELLDARQNYAYGTQHDYFDHWDIVGWTREGTSSRPNSGLATIMSNGPGGSKWMYVGQQHAGQTWTDLTGNHAASVTINGDGWGEFFTNGGSVSVYVNQ",4300 U/mg,not influenced by highly concentrated EDTA or EGTA,influenced by neither citric acid nor zeolite,,about 95%,
